Experimental data taken from the supplement of paper PMC7877785.
± gives the uncertainty stated by the source.

Assay: self-splicing fitness, log relative to wild type (ln ratio); higher = more splicing; Tetrahymena group I intron in knt gene, E. coli kanamycin selection, DiMSum; sequences stand for … in CUCUCU…GGAGGGAAAAGUUAUCAGGCAUGCACCUGGUAGCUAGUCUUUAAACCAAUAGAUUGCAUCGGUUUAAAAGGCAAGACCGUCAAAUUGCGGGAAAGGGGUCAACAGCCGUUCAGUACCAAGUCUCAGGGGAAACUUUGAGAUGGCCUUGCAAAGGGUAUGGUAAUAAGCUGACGGACAUGGUCCUAACCACGCAGCCAAGUCCUAAGUCAACAGAUCUUCUGUUGAUAUGGAUGCAGUUCACAGACUAAAUGUCGGUCGGGGAAGAUGUAUUCUUCUCAUAAGAUAUAGUCGGACCUCUCCUUAAUGGGAGCUAGCGGAUGAAGUGAUGCAACACUGGAGCCGCUGGGAACUAAUUUGUAUGCGAAAGUAUAUUGAUUAGUUUUGGAGUACUCGUGGUCG
Summary of the method: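 Pooled colonies went to amplicon sequencing on an Illumina HiSeq 2500 after six replicate transformations. The plates were LB agar with 100 μg/mL carbenicillin, 50 μM IPTG and 0.2% rhamnose, with or without 25 μg/mL kanamycin, incubated overnight at 37°C or 30°C. The E. coli BL21(DE3) library had all eight P1ex-region intron nucleotides randomised, the intron placed in the knt kanamycin-resistance gene on pET-22b(+). DiMSum fitness is the error-weighted combination of replicate fold changes, kanamycin against none, normalised to wild type.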

Row | Sequence | self-splicing fitness (ln) (30 °C) | self-splicing fitness (ln) (37 °C)
1 | GAUUAGCAAUAUUACGAAUG | -0.837 ± 0.14 | -0.649 ± 0.16
2 | AUUUAGCAAUAUUACGAGCA | -1.66 ± 0.25 | -1.01 ± 0.18
3 | AUCAAGCAAUAUUACGUGGA | -2.28 ± 0.14 | -1.71 ± 0.12
4 | UUUGAGCAAUAUUACGCAUC | -3.03 ± 0.28 | -2.39 ± 0.38
5 | CGCAAGCAAUAUUACGAGGU | -4.03 ± 0.23 | -1.82 ± 0.16
6 | AUAGAGCAAUAUUACGCUUA | -0.78 ± 0.084 | 0.522 ± 0.16
7 | CUUGAGCAAUAUUACGCAUA | -3.01 ± 0.36 | 
8 | CAGUAGCAAUAUUACGGAUG | -1.04 ± 0.099 | -0.362 ± 0.12
9 | AUUGAGCAAUAUUACGAGGA | -1.8 ± 0.32 | -2.41 ± 0.29
10 | ACAAAGCAAUAUUACGUUUA | -3.55 ± 0.13 | -0.482 ± 0.088
11 | AAGAAGCAAUAUUACGUAGC | -3.08 ± 0.25 | -2.32 ± 0.31
12 | ACCCAGCAAUAUUACGUCGC | -1.39 ± 0.069 | -0.784 ± 0.076
13 | CUACAGCAAUAUUACGGUAU | -2.43 ± 0.08 | -1.31 ± 0.096
14 | CAAGAGCAAUAUUACGCCGC | -2.67 ± 0.25 | -1.99 ± 0.26
15 | AGUGAGCAAUAUUACGUAGG | -4.29 ± 0.46 | 
16 | AGUCAGCAAUAUUACGAACG | 0.155 ± 0.087 | 0.717 ± 0.15
17 | GCCGAGCAAUAUUACGUGAU | -1.01 ± 0.073 | -0.638 ± 0.088
18 | CAGCAGCAAUAUUACGAGCU | -3.07 ± 0.21 | -1.76 ± 0.2
19 | AAGAAGCAAUAUUACGUUAU | -3.52 ± 0.14 | -1.88 ± 0.15
20 | AACAAGCAAUAUUACGACUU | -0.0432 ± 0.046 | 0.207 ± 0.064
21 | GUGUAGCAAUAUUACGUUCG | -1.65 ± 0.091 | -0.693 ± 0.11
22 | AUCGAGCAAUAUUACGAAGC | -3.18 ± 0.39 | 
23 | CGAGAGCAAUAUUACGUGAC | -2.77 ± 0.2 | -2.01 ± 0.29
24 | GCUUAGCAAUAUUACGGCGC | -0.263 ± 0.14 | 0.127 ± 0.16
25 | GGCAAGCAAUAUUACGGAAG | -2.84 ± 0.1 | -1.37 ± 0.1

Row | Sequence | self-splicing fitness (ln) (30 °C) | self-splicing fitness (ln) (37 °C)
26 | AAGUAGCAAUAUUACGUCGG | -2.97 ± 0.25 | -2.09 ± 0.26
27 | UACGAGCAAUAUUACGAUAA | -2.9 ± 0.16 | -2.05 ± 0.16
28 | GAUUAGCAAUAUUACGAAGC | -2.4 ± 0.21 | -2.28 ± 0.21
29 | CGCCAGCAAUAUUACGUUCU | -3.88 ± 0.26 | -1.89 ± 0.17
30 | GCAUAGCAAUAUUACGGAAA | -1.6 ± 0.31 | -1.88 ± 0.25
31 | AAGUAGCAAUAUUACGGCAA | 0.196 ± 0.18 | -0.154 ± 0.22
32 | CCGAAGCAAUAUUACGAUGG | -3.47 ± 0.19 | -3.7 ± 0.2
33 | CCUGAGCAAUAUUACGCUGU | -4.99 ± 0.46 | -2.85 ± 0.23
34 | UUUAAGCAAUAUUACGGAUU | -2.78 ± 0.2 | -1.07 ± 0.2
35 | AUGGAGCAAUAUUACGCUGA | -3.48 ± 0.24 | -3.11 ± 0.35
36 | AUCUAGCAAUAUUACGCGAC | -2.29 ± 0.4 | -0.43 ± 0.39
37 | CAUUAGCAAUAUUACGAUAU | -2.91 ± 0.2 | -3.27 ± 0.3
38 | UCUCAGCAAUAUUACGACUU | -1.63 ± 0.073 | -1.75 ± 0.11
39 | CCUAAGCAAUAUUACGAAAG | -1.75 ± 0.18 | 0.000192 ± 0.18
40 | UGUAAGCAAUAUUACGUGGU | -3.15 ± 0.13 | -3.76 ± 0.27
41 | UGUAAGCAAUAUUACGAAAA | -1.7 ± 0.15 | -1.15 ± 0.16
42 | UAAUAGCAAUAUUACGCAAG | -1.92 ± 0.29 | -1.04 ± 0.25
43 | CAGCAGCAAUAUUACGACGU | -0.896 ± 0.076 | -0.529 ± 0.079
44 | UAAAAGCAAUAUUACGCCGA | -1.16 ± 0.12 | -0.318 ± 0.14
45 | CGGGAGCAAUAUUACGUGAC | -2.16 ± 0.32 | -2.9 ± 0.44
46 | UAUCAGCAAUAUUACGAAAC |  | -2.08 ± 0.32
47 | GCAUAGCAAUAUUACGUGCU | -3.32 ± 0.15 | -3.44 ± 0.26
48 | UUAAAGCAAUAUUACGUCUG | 0.0385 ± 0.075 | 0.255 ± 0.096
49 | GAACAGCAAUAUUACGAAGA | -1.13 ± 0.18 | -0.694 ± 0.16
50 | ACCCAGCAAUAUUACGAACU | -1.33 ± 0.11 | -0.29 ± 0.13

Row | Sequence | self-splicing fitness (ln) (30 °C) | self-splicing fitness (ln) (37 °C)
51 | GAGUAGCAAUAUUACGAUGA | -1.87 ± 0.2 | -2.22 ± 0.23
52 | CACCAGCAAUAUUACGACUG | -0.642 ± 0.054 | 0.144 ± 0.073
53 | GUAAAGCAAUAUUACGUAGU | -2.42 ± 0.12 | -1.36 ± 0.18
54 | CUCAAGCAAUAUUACGAGGU |  | -1.19 ± 0.18
55 | ACGGAGCAAUAUUACGCCCA | -2.81 ± 0.43 | -1.92 ± 0.37
56 | AGUGAGCAAUAUUACGAUCC | -0.375 ± 0.25 | -0.193 ± 0.22
57 | ACAGAGCAAUAUUACGUGCG | -2.89 ± 0.29 | -1.75 ± 0.28
58 | UGUAAGCAAUAUUACGUCAA | -2.57 ± 0.18 | -0.839 ± 0.16
59 | CCCGAGCAAUAUUACGUCAA | -3.36 ± 0.2 | -3.09 ± 0.2
60 | ACAUAGCAAUAUUACGGGAA | -2.36 ± 0.11 | -1.7 ± 0.13
61 | GAUGAGCAAUAUUACGACUG | -3.11 ± 0.44 | 
62 | CUCAAGCAAUAUUACGCGUC | -4.33 ± 0.39 | -1.37 ± 0.16
63 | CGUCAGCAAUAUUACGUUAA | -3.28 ± 0.17 | -2.38 ± 0.14
64 | GUUUAGCAAUAUUACGAAGU | -2.65 ± 0.16 | -2.03 ± 0.38
65 | AGCCAGCAAUAUUACGAGUA | -3.06 ± 0.22 | -1.5 ± 0.16
66 | CCCCAGCAAUAUUACGUAGU | -3.09 ± 0.078 | -3.07 ± 0.16
67 | UUUGAGCAAUAUUACGUCUC | -3.52 ± 0.29 | -2.7 ± 0.33
68 | AACGAGCAAUAUUACGACAC |  | -1.46 ± 0.32
69 | AUUAAGCAAUAUUACGCCAA | -0.955 ± 0.21 | -1.59 ± 0.25
70 | UCGGAGCAAUAUUACGGGGU | -3.57 ± 0.29 | 
71 | AAACAGCAAUAUUACGCCUA | -1.13 ± 0.086 | -0.0496 ± 0.075
72 | GUAAAGCAAUAUUACGUGUA | -1.44 ± 0.064 | -0.702 ± 0.087
73 | GUGAAGCAAUAUUACGUGGG | -3.96 ± 0.2 | -2.13 ± 0.15
74 | GCAUAGCAAUAUUACGAGUA | -1.63 ± 0.15 | -1.23 ± 0.12
75 | AGUUAGCAAUAUUACGCCGG | -2.98 ± 0.34 | -2.26 ± 0.39

Row | Sequence | self-splicing fitness (ln) (30 °C) | self-splicing fitness (ln) (37 °C)
76 | AAAAAGCAAUAUUACGGUUG | -2.28 ± 0.1 | -1.58 ± 0.13
77 | GCUGAGCAAUAUUACGACUU | -1.64 ± 0.14 | 0.471 ± 0.14
78 | UGCAAGCAAUAUUACGUGCG | -2.86 ± 0.18 | -1.94 ± 0.18
79 | GAAUAGCAAUAUUACGGUCG | -0.153 ± 0.098 | -0.479 ± 0.12
80 | UCGUAGCAAUAUUACGGUAC | -4.6 ± 0.46 | -3.01 ± 0.34
81 | GUGAAGCAAUAUUACGAAAC | -1.66 ± 0.11 | -0.943 ± 0.14
82 | AUUCAGCAAUAUUACGAUCA | -0.753 ± 0.088 | -0.162 ± 0.11
83 | CAUUAGCAAUAUUACGUUGU | -3.95 ± 0.23 | -2.75 ± 0.22
84 | AUGAAGCAAUAUUACGGCAG | 0.378 ± 0.086 | -0.115 ± 0.1
85 | UUCUAGCAAUAUUACGUUCA | -0.579 ± 0.16 | -1.11 ± 0.18
86 | AAGAAGCAAUAUUACGUAUA | -2.18 ± 0.14 | -1.17 ± 0.15
87 | GAACAGCAAUAUUACGAGUG | -1.78 ± 0.081 | -1.31 ± 0.1
88 | AUGAAGCAAUAUUACGACCG | -0.584 ± 0.24 | -0.447 ± 0.27
89 | UCAAAGCAAUAUUACGACAU | -3.633 ± 0.023 | -2.37 ± 0.036
90 | UGCUAGCAAUAUUACGUUAC |  | -1.91 ± 0.23
91 | CGCAAGCAAUAUUACGCCAU | -3.9 ± 0.26 | -2.61 ± 0.19
92 | GUCCAGCAAUAUUACGUAGG | -2.31 ± 0.13 | -1.84 ± 0.15
93 | GAGGAGCAAUAUUACGAAUA | -3.68 ± 0.4 | -3.08 ± 0.38
94 | UCCGAGCAAUAUUACGGAUU | -3.52 ± 0.29 | -2.45 ± 0.26
95 | ACGCAGCAAUAUUACGACAA | -1.61 ± 0.12 | -0.427 ± 0.097
96 | CGGCAGCAAUAUUACGUAUA | -3.35 ± 0.27 | -2.8 ± 0.23
97 | AGGUAGCAAUAUUACGAGAA | -2.95 ± 0.05 | -2.09 ± 0.047
98 | GUCAAGCAAUAUUACGUUCA | -1.13 ± 0.1 | -0.987 ± 0.16
